The record followed here is publication PMC10878280 (Journal of Virology, 2024).

This assay addresses neuraminidase (NA) of A/California/04/2009 (Influenza A virus A/California/04/2009 …, UniProt C3W5S3, strain). As to the kind of experiment: fluorescence imaging with FRAP of labelled antibody on transfected cells. Particulars: one partner purified.

B1: CD6 IgG (antibody, V domains shown)
VH: QVKLQESGGGLVQPKGSLKLSCAASGFTFNTYAMNWVRQAPGKGLEWVARIRSKSNNYATFYADSVKDRFTISRDDSQSMLYLQMHNLKTDDTAMYYCVRPSIYYYASGYLDVWGAGTTVTVSS
VL: QIVLSQSPAILSASPGEKVTMTCRTSSSVSYMHWYQQKPGSSPKPWIYATSNLASGVPFRFSGSGSGTSYSLTISRVEAEDAATYYCQQWNSNPPTFGGGTKLEIK
notes: not shown: ybbR, C-terminal, kept; copies: 2 + 2
With B1, the binding result is given as “binds”.
